From publication PMC9918506, “Structural insights into pathogenic mechanism of hypohidrotic ectodermal dysplasia caused by ectodysplasin A variants” (Nature Communications, 2023) come the findings set out here.

B1: EDA·A1 TNF homology domain (EDA·A1THD, residues 233–391), wild type [human] / EDAR cysteine-rich domains (EDAR_(CRDS), residues 30–150), MBP tag removed [human] (parent)
chain 1: GPSGAADKAGTRENQPAVVHLQGQGSAIQVKNDLSGGVLNDWSRITMNPKVFKLHPRSGELEVLVDGTYFIYSQVEVYYINFTDFASYEVVVDEKPFLQCTRSIETGKTNYNTCYTAGVCLLKARQKIAVKMVHADISINMSKHTTFFGAIRLGEAPAS
chain 2: GGSGGSGGSGGSNCGENEYYNQTTGLCQECPPCGPGEEPYLSCGYGTKDEDYGCVPCPAEKFSKGGYQICRRHKDCEGFFRATVLTPGDMENDAECGPCLPGYYMLENRPRNIYGMVCYSCLLAPPNTKECVG

This assay covers variants of B1. Briefly: SPR. The note with it: with EDAR cysteine-rich domains (EDAR_(CRDS), residues 30–150), 50, 25, 12.5, 6.25, 3.125 nM.
On to chain 1 GPSGAADKAGTRENQPAVVHLQGQGSAIQVKNDLSGGVLNDWSCITMNPKVFKLHPRSGELEVLVDGTYFIYSQVEVYYINFTDFASYEVVVDEKPFLQCTRSIETGKTNYNTCYTAGVCLLKARQKIAVKMVHADISINMSKHTTFFGAIRLGEAPAS, for which the Kd (as a rule, the equilibrium constant for the complex coming apart) turned out to be 35.9 nM.
